{"source": "patent US20210047372A1", "about": "(Affibody, published 2021)", "binders": {"B1": {"name": "Y00035 (designed binder)", "chain": "MGSSHHHHHHGSSLAEAKEAANAELDSYGVQANSIEAIEQGLFVEVVELLKELILAALPASGSVD", "notes": "From library Ylib001Naive.I"}, "B2": {"name": "Y02444 (designed binder)", "chain": "MGSSHHHHHHGSSLAEAKEAAIAELDSKGVGAVEIKQIQEALLVEIVQLLKQAILAVLPA", "notes": "From library Ylib002Naive.I; also called Y002444"}, "B3": {"name": "Y02374 (designed binder)", "chain": "B2 chain with V33A, Q37R, E40A, L42E", "notes": "From library Ylib002Naive.I"}, "B4": {"name": "Y02415 (designed binder)", "chain": "B2 chain with V33G, E34D, Q37D, E40D", "notes": "From library Ylib002Naive.I"}, "B5": {"name": "Y02447 (designed binder)", "chain": "B2 chain with V33H, E34G, Q37E, E40D, L42I, V57A", "notes": "From library Ylib002Naive.I"}, "B6": {"name": "Y02465 (designed binder)", "chain": "B2 chain with V33N, E34H, Q37A, E40H, L42Q, L43F", "notes": "From library Ylib002Naive.I"}, "B7": {"name": "Y02495 (designed binder)", "chain": "B2 chain with V33E, Q37E, E40G, L42M", "notes": "From library Ylib002Naive.I"}, "B8": {"name": "Y02697 (designed binder)", "chain": "B2 chain with I22L", "notes": "Y02444 with I9L"}, "B9": {"name": "Y02698 (designed binder)", "chain": "B2 chain with K28Y", "notes": "Y02444 with K15Y"}, "B10": {"name": "Y02699 (designed binder)", "chain": "B2 chain with Q39E", "notes": "Y02444 with Q26E"}, "B11": {"name": "Y02700 (designed binder)", "chain": "B2 chain with I22L, V33G, E34D, Q37D, E40D", "notes": "Y02415 with I9L"}, "B12": {"name": "Y00299 (designed binder)", "chain": "MGSSHHHHHHGSSLAEAKEAAIAELDSKGVGAYQIKFIQVAKTVEQVQILKQAILADLPA", "notes": "From library Ylib002Naive.I"}, "B13": {"name": "Y00304 (designed binder)", "chain": "B12 chain with K42H, T43D, Q46E", "notes": "From library Ylib002Naive.I"}, "B14": {"name": "Y00310 (designed binder)", "chain": "B12 chain with V40I, K42H, Q46E, I49L, L50M", "notes": "From library Ylib002Naive.I"}, "B15": {"name": "Y00345 (designed binder)", "chain": "B12 chain with Q46A, I49A, L50I", "notes": "From library Ylib002Naive.I"}, "B16": {"name": "Y00358 (designed binder)", "chain": "MGSSHHHHHHGSSLAEAKEAAIAELDSKGVGAAKIKWIQDAKSVETVQFLKQAILAELPA", "notes": "From library Ylib002Naive.I"}, "B17": {"name": "Y02709 (designed binder)", "chain": "B16 chain with I22L", "notes": "Y00358 with I9L"}, "B18": {"name": "Y02710 (designed binder)", "chain": "B16 chain with K28Y", "notes": "Y00358 with K15Y"}, "B19": {"name": "Y02711 (designed binder)", "chain": "B16 chain with Q39E", "notes": "Y00358 with Q26E"}, "B20": {"name": "Y02713 (designed binder)", "chain": "B12 chain with K28Y, V40I, K42H, Q46E, I49L, L50M", "notes": "Y00310 with K15Y"}, "B21": {"name": "Y02714 (designed binder)", "chain": "B12 chain with Q39E, V40I, K42H, Q46E, I49L, L50M", "notes": "Y00310 with Q26E"}, "B22": {"name": "Y02715 (designed binder)", "chain": "B16 chain with K28Y, Q39E", "notes": "Y00358 with K15Y + Q26E"}, "B23": {"name": "Y02716 (designed binder)", "chain": "MGSSHHHHHHGSSLAEAKEAAIAELDSYGVGARQIKWIEQAKSVEVVQWLKQAILADLPA", "notes": "Y00301 with K15Y + Q26E"}, "B24": {"name": "Y02717 (designed binder)", "chain": "B12 chain with K28Y, Q39E, V40I, K42H, Q46E, I49L, L50M", "notes": "Y00310 with K15Y + Q26E"}, "B25": {"name": "Y00330 (designed binder)", "chain": "MGSSHHHHHHGSSLAEAKEAAIAELDSKGVGAKYIKMIQMAKHVETVQYMKQAILASLPA", "notes": "From library Ylib002Naive.I"}, "B26": {"name": "Y00361 (designed binder)", "chain": "B25 chain with Y34F, M40S, H43L, Y49L, M50L, S57D", "notes": "From library Ylib002Naive.I"}, "B27": {"name": "Y00356a (designed binder)", "chain": "B25 chain with M40H, K42H, H43Y, T46V, Y49W, M50L, S57H", "notes": "From library Ylib002Naive.I; if it is only 46 residues long, an A must be added at the C-terminus"}, "B28": {"name": "Y00032 (designed binder)", "chain": "MGSSHHHHHHGSSLAEAKEAAIAELDSKGVGAYQKSFIELAKSVEHVELLKEAILADLPASGSVD"}, "B29": {"name": "Y00125 (designed binder)", "chain": "B28 chain with I22N", "notes": "Differs from Y00032 only in position 9 (N instead of I)"}, "B30": {"name": "Y00263 (designed binder)", "chain": "MGSSHHHHHHGSSLAEAKEAAIAELKSKGVGAYQKSFIELAKSVEHVELLKEAILADLP", "notes": "Y00032 with D13K"}, "B31": {"name": "Y00264 (designed binder)", "chain": "B30 chain with K26D, K28Y", "notes": "Y00032 with K15Y"}, "B32": {"name": "Y00265 (designed binder)", "chain": "B30 chain with K26D, V30I", "notes": "Y00032 with V17I"}, "B33": {"name": "Y00266 (designed binder)", "chain": "B30 chain with K26D, G31S", "notes": "Y00032 with G18S"}, "B34": {"name": "Y00267 (designed binder)", "chain": "B30 chain with K26D, A32E", "notes": "Y00032 with A19E"}, "B35": {"name": "Y00268 (designed binder)", "chain": "B30 chain with K26D, K35I", "notes": "Y00032 with K22I"}, "B36": {"name": "Y00269 (designed binder)", "chain": "B30 chain with K26D, S36K", "notes": "Y00032 with S23K"}, "B37": {"name": "Y00271 (designed binder)", "chain": "B30 chain with K26D, E39Q", "notes": "Y00032 with E26Q"}, "B38": {"name": "Y00272 (designed binder)", "chain": "B30 chain with K26D, A41G", "notes": "Y00032 with A28G"}, "B39": {"name": "Y00273 (designed binder)", "chain": "B30 chain with K26D, E45Q", "notes": "Y00032 with E32Q"}, "B40": {"name": "Y00274 (designed binder)", "chain": "B30 chain with K26D, E48Q", "notes": "Y00032 with E35Q"}, "B41": {"name": "Y00275 (designed binder)", "chain": "B30 chain with K26D, E52Q", "notes": "Y00032 with E39Q"}, "B42": {"name": "Y00276 (designed binder)", "chain": "B30 chain with K26D, A56K", "notes": "Y00032 with A43K"}, "B43": {"name": "Y00296 (designed binder)", "chain": "B30 chain with K26D, K35I, S36K, E39Q, E48Q, E52Q", "notes": "Y00293 with E26Q"}, "B44": {"name": "Y00296a (designed binder)", "chain": "MGSSHHHHHHGSSLAEAKEAAIAELDSKGVGAYQIKFIQLAKSVEHVQLLKQAILADLPASYGS", "notes": "if it is only 46 residues long, ASYGS must be added at the C-terminus"}, "B45": {"name": "Y00296b (designed binder)", "chain": "MGSSHHHHHHGSSLAEAKEAAIAELDSKGVGAYQIKFIQLAKSVEHVQLLKQAILADLPGYS", "notes": "if it is only 46 residues long, GYS must be added"}, "B46": {"name": "Y00296C (designed binder)", "chain": "MGSSHHHHHHTIDEWLLAEAKEAAIAELDSKGVGAYQIKFIQLAKSVEHVQLLKQAILADLP", "notes": "if it is only 46 residues long, TIDEWL must be put before it"}}, "note": "Substitutions are numbered along the chain they refer to. Names may count otherwise."}
{"biological_target": "T1, interleukin 6 (IL-6) (UniProt P05231 30-212)", "T1 construct": "also called b-IL-6", "assay": "SPR, Biacore T200; target immobilized on CM5, His6-tagged Y variant injected; 1:1 Langmuir", "procedure": "(§1) Kinetic constants (kₐ and kd) and affinities (KD) were determined for Hiss-tagged Y variants using a Biacore T200 instrument (GE Healthcare). Target proteins C4, IL-6 and insulin, respectively, were immobilized in separate flow cells on the carboxylated dextran layer of different CM5 chip surfaces (GE Healthcare).\n(§2) Immobilization was performed using amine coupling chemistry according to the manufacturer's protocol and PBS pH 7.4 supplemented with 0.1 Tween20 (PBST 0.1%) as running buffer. The ligand immobilization levels on the surfaces were 3280-8830 RU for C4, 495-1184 RU for IL-6, and 270-282 RU for insulin. One flow cell surface on each chip was activated and deactivated for use as blank during analyte injections. In the kinetic experiment, PBST 0.1% was used as running buffer at a flow rate of 30 μl/min. The analytes, i.e. Y variants, were each diluted in PBST 0.1 buffer at concentrations of 1000, 500, 100, 50 and 10 nM and injected for 5 min, followed by dissociation in running buffer for 3 min. After dissociation, the surfaces were regenerated with one injection of 30 μl 10 mM HCl. Kinetic constants were calculated from the sensorgrams using the Langmuir 1:1 model of Biacore T200 Evaluation software 2.0 (GE Healthcare).", "units": {"Kd": "nM", "koff": "s⁻¹", "kon": "M⁻¹ s⁻¹"}}
{"binder": "B1", "Kd": 360}
{"binder": "B2", "Kd": 61, "koff": 0.0055, "kon": 90000}
{"binder": "B3", "Kd": 120, "koff": 0.0017, "kon": 14000}
{"binder": "B4", "Kd": 160, "koff": 0.0015, "kon": 9700}
{"binder": "B5", "Kd": 160, "koff": 0.0017, "kon": 11000}
{"binder": "B6", "Kd": 270, "koff": 0.0021, "kon": 7500}
{"binder": "B7", "Kd": 240, "koff": 0.0017, "kon": 7100}
{"binder": "B8", "Kd": 150, "koff": 0.009, "kon": 50000}
{"binder": "B9", "Kd": 120, "koff": 0.0033, "kon": 28000}
{"binder": "B10", "Kd": 200, "koff": 0.0029, "kon": 19000}
{"binder": "B11", "Kd": 62, "koff": 0.0025, "kon": 46000}
{"biological_target": "T2, insulin (UniProt P01308 25-54; P01308 90-110, limits assumed)", "T2 construct": "Mature insulin has two chains (A and B) from one precursor; also called b-insulin", "T2 sequence (P01308 25-54 limits assumed, form in doubt, chain 1 of 2)": "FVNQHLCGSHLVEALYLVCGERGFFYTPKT", "T2 sequence (P01308 90-110 limits assumed, form in doubt, chain 2 of 2)": "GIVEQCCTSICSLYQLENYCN", "assay": "SPR, Biacore T200; target immobilized on CM5, His6-tagged Y variant injected; 1:1 Langmuir", "procedure": "as §1, §2", "units": {"Kd": "nM", "koff": "s⁻¹", "kon": "M⁻¹ s⁻¹"}}
{"binder": "B12", "Kd": 6.5, "koff": 0.002, "kon": 310000}
{"binder": "B13", "Kd": 21, "koff": 0.0011, "kon": 85000}
{"binder": "B14", "Kd": 37, "koff": 0.0063, "kon": 170000}
{"binder": "B15", "Kd": 61, "koff": 0.017, "kon": 290000}
{"binder": "B16", "Kd": 10, "koff": 0.0023, "kon": 220000}
{"binder": "B17", "Kd": 380, "koff": 0.01, "kon": 27000}
{"binder": "B18", "Kd": 14, "koff": 0.0027, "kon": 190000}
{"binder": "B19", "Kd": 54, "koff": 0.008, "kon": 150000}
{"binder": "B20", "Kd": 190, "koff": 0.014, "kon": 110000}
{"binder": "B21", "Kd": 540, "koff": 0.16, "kon": 290000}
{"binder": "B22", "Kd": 280, "koff": 0.0019, "kon": 6700}
{"binder": "B23", "Kd": 7.6, "koff": 0.21, "kon": "2.7e+07"}
{"binder": "B24", "Kd": 610, "koff": 0.02, "kon": 33000}
{"binder": "B25", "Kd": 120, "koff": 0.0037, "kon": 30000}
{"binder": "B26", "Kd": 310, "koff": 0.0036, "kon": 12000}
{"binder": "B27", "Kd": 0.17, "koff": 0.0061, "kon": "3.4e+07"}
{"binder": "B28", "Kd": 50}
{"binder": "B29", "Kd": 110}
{"binder": "B30", "Kd": 130}
{"binder": "B31", "Kd": 64}
{"binder": "B32", "Kd": 120}
{"binder": "B33", "Kd": 56}
{"binder": "B34", "Kd": 59}
{"binder": "B35", "Kd": 84}
{"binder": "B36", "Kd": 390}
{"binder": "B37", "Kd": 47}
{"binder": "B38", "Kd": 110}
{"binder": "B39", "Kd": 77}
{"binder": "B40", "Kd": 56}
{"binder": "B41", "Kd": 59}
{"binder": "B42", "Kd": 76}
{"binder": "B43", "Kd": 37}
{"binder": "B44", "Kd": 22}
{"binder": "B45", "Kd": 31}
{"binder": "B46", "Kd": 51}
